Patent US11466067B2 (priority 2019, dated 2022)

How the values were obtained:
[1] = tested on: circulating cytokines, chemokines, growth factors; format: in vivo, mice
[2] = tested on: IFNγ, IL-1β, IL-2, IL-6, IL-8, TNFα; assay: Single oral capsule dose in NHP: plasma proinflammatory cytokines; format: in vivo, Macaca fascicularis
Description: The panel of cytokines (IFNγ, IL-1β, IL-2, IL-6, and IL-8) was evaluated using a multiplex kit available from MSD. The assays in this panel were sandwich immunoassays. The MSD plate came precoated with capture antibodies on independent and pre-defined spots, and samples were quantitated against an 8-point standard curve prepared using a mixture of the cytokines (Proinflammatory Panel 1 (human) Calibrator Blend) from MSD. The standards included 0 pg/mL and these concentration ranges: IFNγ (0.37-1500 pg/mL), IL-1β (0.14-589 pg/mL), IL-2 (0.36-1490 pg/mL), IL-6 (0.18-721 pg/mL) and IL-8 (0.14-553 pg/mL).
The MSD plate (pre-coated with capture antibodies) was washed 3 times with PBST before use. Standards were prepared in Diluent 2 (MSD Cat No R51BB) and test samples diluted 2 fold in Diluent 2. Standards and diluted samples were added to the assay plate, and the plate incubated for 2 hours at room temperature with shaking. The plate was washed 3 times with PBST, and a mixture of 1×SULFO TAG detection antibodies added to the plate. The plate was incubated for 2 hours at room temperature with shaking. Following a wash step, 2×MSD Read buffer was added to the wells of the plate, and the plate read using the MSD Sector Imager 600 plate reader. The lower limit of detection of each analyte was defined as 2.5 standard deviation above background.
The purpose of the TNFα immunoassay was to quantify NHP TNFα concentration in plasma. The antibody pair in this immunoassay reacted with both human and NHP TNFα. Samples were quantitated using an 8-point standard curve prepared from a human TNFα calibrator that ranges in concentration from 5.6-4052 pg/mL and includes 0 pg/mL.
The biotinylated anti-NHP TNFα capture antibody was added to a MSD Small Spot Streptavidin plate and incubated for an hour at RT with shaking. Controls were prepared in pooled plasma, standards in Diluent 43 (MSD Cat No R50AG), and test samples were diluted 2 fold in Diluent 43. […] Following a wash step, 2×MSD Read buffer was added to the wells of the plate, and the plate read using the MSD Sector Imager 600 plate reader. […]

[3] = tested on: colonic markers; assay: Colonic sigmoidoscopy spray in NHP: inflammatory and tissue repair markers; format: in vivo, Macaca fascicularis; settings: 1, 3, 10 mg
Description: To assess the effect of an IL-10 delivery construct on pro-inflammatory and anti-inflammatory markers the IL-10 delivery construct was delivered to male Macaca fascicularis monkeys (about 5 to about 8 kg) by colonic sigmoidoscopy with a spray nozzle. The IL-10 delivery construct was administered at doses of 1 mg, 3 mg, and 10 mg formulated in albumin.

[4] = Purification with and without sulfitolysis: SEC-HPLC forms, yield, dimer recovery
Description: Refolding in both processes was carried out at 4° C. The refolding solution used in both processes contained 1 mM reduced glutathione, 0.5 mM oxidized glutathione, 1M Arginine-HCl, 250 mM sucrose, 100 mM Tris pH 8.5 at 4° C., and 2 mM EDTA.

[5] = Process trains with S-650F cation exchange: yield, recovery, purity, endotoxin
Description: Refolding was carried out at 4° C. in a refolding solution containing 1 mM reduced glutathione, 0.5 mM oxidized glutathione, 1M Arginine-HCl, 250 mM sucrose, 100 mM Tris pH 8.5 at 4° C., and 2 mM EDTA. […] Buffer A for the CHT bind/elute step in Table 56 may also comprise 25 mM Tris, pH7.5, 300 mM NaCl, 5.0 mM NaPi, 0.5 mM CaCl2. Columns used are described in Table 58.
The yield, recovery, and purity of the IL-10 delivery construct was assess after each step, and after each process train.

[6] = 0.3 mg/mL, 5 h
[7] = Control process train: Capto Q, CHT (Linear elution), based on historical data
[8] = PT1: Capto Q, S-650F, CHT (FT mode)
[9] = PT2: Capto Q, CHT (Step elution), S-650F
[10] = PT3: S-650F, Capto Q, CHT (FT mode)

B1: IL-10 delivery construct: recombinant homodimeric fusion protein: N-terminal methionine, cholix386 domain, polyGlySer spacer, recombinant human IL-10 (protein)
chain: MVEEALNIFDECRSPCSLTPEPGKPIQSKLSIPSDVVLDEGVLYYSMTINDEQNDIKDEDKGESIITIGEFATVRATRHYVNQDAPFGVIHLDITTENGTKTYSYNRKEGEFAINWLVPIGEDSPASIKISVDELDQQRNIIEVPKLYSIDLDNQTLEQWKTQGNVSFSVTRPEHNIAISWPSVSYKAAQKEGSRHKRWAHWHTGLALCWLVPMDAIYNYITQQNCTLGDNWFGGSYETVAGTPKVITVKQGIEQKPVEQRIHFSKGNAMSALAAHRVCGVPLETLARSRKPRDLTDDLSCAYQAQNIVSLFVATRILFSHLDSVFTLNLDEQEPEVAERLSDLRRINENNPGMVTQVLTVARQIYNDYVTHHPGLTPEQTSAGAQAGGGGSGGGGSGGGGSPGQGTQSENSCTHFPGNLPNMLRDLRDAFSRVKTFFQMKDQLDNLLLKESLLEDFKGYLGCQALSEMIQFYLEEVMPQAENQDPDIKAHVNSLGENLKTLRLRLRRCHRFLPCENKSKAVEQVKNAFNKLQEKGIYKAMSEFDIFINYIEAYMTMKIRN
modifications: homodimer
Question: With B1 as the molecule, how does the “plasma IL-31” value ([1]; 0.3 mg/kg) read?
Answer: The value was “near-base line levels”.

Question: What about the “plasma TGF-β relative to Vehicle” value ([1]; 3.0 mg/kg) of the same molecule?
Answer: Its value is “reduced”.

Question: And the “plasma IL-3” value ([1]; 9.0 mg/kg)?
Answer: Its value is “near-base line levels”.

Question: What about the “plasma IL-4” value ([1]; 9.0 mg/kg) of the same molecule?
Answer: Its value is “near-base line levels”.

Question: What about the “production of IL-12 and IL-17” value ([1]; 9.0 mg/kg) of the same molecule?
Answer: Its value is “prevented the production”.

Question: And the “plasma IL-28” value ([1]; 3.0 and 9.0 mg/kg)?
Answer: Its value is “near-base line levels”.

Question: And the “plasma MCSF” value ([1]; highest dose (9.0 mg/kg))?
Answer: The value was “reduced”.

Question: And the “oxazolone-induced changes in LIX, LIF, IP10” value ([1]; mouse, in vivo)?
Answer: Its value is “mitigated”.

Question: What about the “oxazolone-induced increase in plasma GCSF/CSF3” value ([1]; mouse, in vivo) of the same molecule?
Answer: The value was “attenuated”.

Question: What about the “plasma IL-13 and IL-15 vs Vehicle” value ([1]; mouse, in vivo) of the same molecule?
Answer: Its value is “trend towards an IL-10 delivery construct-mediated decrease”.

Question: What about the “plasma IFNγ, IL-1β, IL-2, IL-8, IL-6” value ([2]; 1-82 mg oral capsules) of the same molecule?
Answer: Its value is “not associated with any consistent trends”.

Question: And the “plasma TNFα” value ([2]; all samples below limit of detection)?
Answer: Its value is “no induction”.

Question: What about the “plasma IL-1Ra and IFN-γ after oral enteric-coated capsules” value ([2]; compared with intravenous administration) of the same molecule?
Answer: The value was “increased IL-1Ra without significant induction of IFN-γ”.

Question: What about the “expression of anti-inflammatory markers” value [3] of the same molecule?
Answer: Its value is “increased expression”.

Question: What about the “expression of pro-inflammatory markers” value [3] of the same molecule?
Answer: The value was “decreased expression”.

Question: What about the “expression of tissue repair and wound healing biomarkers” value [3] of the same molecule?
Answer: The value was “increased expression”.

Question: And the “Dimer Purity (%)” value ([4]; No Sulfitolysis of SIB (97 mL Capto Q))?
Answer: The value was 84%.

Question: And the “Dimer Purity (%)” value ([4]; Sulfitolysis of SIB (97 mL Capto Q))?
Answer: Its value is 74%.

Question: And the Endotoxin [5, 7]?
Answer: The Endotoxin was “*8 EU/mg”.

Question: And the Purity [5, 7]?
Answer: The Purity was “*85%”.

Question: And the Yield ([5]; Control: Capto Q ImpRes, CHT gradient B/E)?
Answer: The Yield was 68 mg.

Question: And the Endotoxin [5, 8]?
Answer: Its Endotoxin is 8.9 EU/mg.

Question: What about the Purity [5, 8] of the same molecule?
Answer: Its Purity is 92%.

Question: What about the Yield ([5]; PT2: Capto Q ImpRes, CHT step B/E 80 mM NaPi, S-650F) of the same molecule?
Answer: Its Yield is 26 mg.

Question: What about the Endotoxin [5, 9] of the same molecule?
Answer: The Endotoxin was 5 EU/mg.

Question: And the Purity [5, 9]?
Answer: Its Purity is 91%.

Question: What about the Endotoxin [5, 10] of the same molecule?
Answer: The Endotoxin was 0.4 EU/mg.

Question: And the Purity [5, 10]?
Answer: The Purity was 96%.

Question: What about the “solution stability in PBS at 37 °C” value [6] of the same molecule?
Answer: Its value is “significant degradation”.

Question: And the “solution stability in PBS at RT” value [6]?
Answer: The value was “stable”.
